The target of assay [1] is T1, human Trop-2 on Trop-2 positive cancer cells (human, UniProt P09758 27-323).
T1 sequence (looked up): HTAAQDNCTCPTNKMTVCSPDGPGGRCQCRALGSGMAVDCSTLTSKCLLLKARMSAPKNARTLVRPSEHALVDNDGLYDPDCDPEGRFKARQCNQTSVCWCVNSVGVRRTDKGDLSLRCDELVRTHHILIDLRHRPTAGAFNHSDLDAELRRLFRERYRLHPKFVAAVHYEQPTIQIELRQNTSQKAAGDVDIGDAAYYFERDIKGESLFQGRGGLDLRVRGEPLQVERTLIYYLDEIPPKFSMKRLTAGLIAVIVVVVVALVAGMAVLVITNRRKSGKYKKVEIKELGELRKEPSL
The assay can be described thus: cell-based or functional assay.

Assay [2] deals with T2, human Trop-2-ECD-6His fusion protein (human, UniProt P09758 27-274).
T2 construct: Expressed in a human 293 cell line; also called huTrop-2; human Trop-2 antigen
T2 sequence: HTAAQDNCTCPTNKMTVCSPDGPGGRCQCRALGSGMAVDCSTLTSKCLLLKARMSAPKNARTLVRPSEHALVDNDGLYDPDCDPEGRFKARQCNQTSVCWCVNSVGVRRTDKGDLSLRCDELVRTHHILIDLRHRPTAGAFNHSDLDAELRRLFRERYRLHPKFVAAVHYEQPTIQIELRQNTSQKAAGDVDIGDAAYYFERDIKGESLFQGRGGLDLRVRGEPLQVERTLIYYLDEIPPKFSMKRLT
The assay can be described thus: antigen binding ELISA on immobilized human Trop-2-ECD-6His.

The target of assay [3] is T3, human Trop-2-ECD-6His fusion protein (Homo sapiens, UniProt P09758).
T3 construct: made in house; host or cells: human 293 cell line
T3 sequence (P09758 with tags, fused parts or gaps): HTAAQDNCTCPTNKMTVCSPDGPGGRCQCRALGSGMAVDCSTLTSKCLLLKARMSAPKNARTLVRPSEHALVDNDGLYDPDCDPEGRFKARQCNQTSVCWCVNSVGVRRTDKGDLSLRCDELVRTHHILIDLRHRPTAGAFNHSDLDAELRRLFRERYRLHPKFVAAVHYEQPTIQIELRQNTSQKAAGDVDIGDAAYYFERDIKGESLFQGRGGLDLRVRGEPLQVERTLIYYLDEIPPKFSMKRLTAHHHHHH
The assay can be described thus: Antigen binding assay (ELISA) on immobilized Trop-2-ECD-6His.

In assay [4] the target is T1, human Trop-2 on Trop-2 positive cancer …. The assay can be described thus: cell-based or functional assay. This is another data set of the same source.
The test system of assay [5] is Trop-2 positive breast cancer cell line MDA-MB-468. The assay can be described thus: Internalization assay by flow cytometry (Example 2 protocol). Format: cell-based, human. As to conditions: Table 9; second round of humanization of #118-2-5. On the procedure: The chimeric IgG1 #118-2-5 and #125-1-5 were further evaluated by internalization assay using Trop-2 positive breast cancer cell line MDA-MB-468. MDA-MB-468 cells were seeded at 1×10^5 cell/well. Next, the chimeric or benchmark IgGs were added to cells in FACS buffer and incubated for 2 hours at 4° C. After incubation, the cells were washed to remove unbound antibody. The cells were then incubated at 37° C. After 2 hours, the cells were dissociated and stained with fluorescent-conjugated […] secondary antibodies for 30 minutes on ice in dark before being analyzed using Beckman flow cytometry system. The fluorescent intensity and cell binding percentage at each time point were analyzed by Beckman flow cytometric software. The amount of chimeric IgGs internalized into cells was determined using the following formula: % internalization rate = 100 × (MFI4°C - MFI37°C) / MFI4°C.

Where [6] appears, read: Table 10, humanized #125-1-5 antibodies.

B1: humanized #125-1-5 Hu1/Lu6 (antibody, V domains shown)
VH: QVQLVQSGAEVKKPGASVKVSCKASGYTFTTYVIHWVRQAPGQRLEWMGYINPNNDGTKYNEKFKGRVTITRDTSASTAYMELSSLRSEDTAVYYCARPHFETHAMDYWGQGTLVTVSS
VL: DIQMTQSPSSLSASVGDRVTITCKASEDIFNRLAWYQQKPGKAPKLLISGATSLETGVPSRFSGSGSGKDYTLTISSLQPEDFATYYCQQYWNTWTFGQGTKVEIK
notes: Humanized antibody
As usually defined, the EC50 is the concentration at which the effect is half-maximal. Take B1: in assay [1], the “Internalization rate (flow cytometry, MDA-MB-468 cells)” value is 14%. For the same molecule, in assay [2], the EC50 was determined as 0.003 nM.

B2: humanized #125-1-5 Hu4/Lu6 (antibody, V domains shown)
VH: QVQLVQSGAEVKKPGASVKMSCKASGYTFTTYVIHWVRQAPGQRLEWIGYINPNNDGTKYNEKFKGRATLTSDKSASTAYMELSSLRSEDTAVYYCARPHFETHAMDYWGQGTLVTVSS
VL: DIQMTQSPSSLSASVGDRVTITCKASEDIFNRLAWYQQKPGKAPKLLISGATSLETGVPSRFSGSGSGKDYTLTISSLQPEDFATYYCQQYWNTWTFGQGTKVEIK
notes: Humanized antibody
As to B2, in assay [1], the “Internalization rate (flow cytometry, MDA-MB-468 cells)” value is 10.3%. The molecule also registered a concentration for a half-maximal effect (EC50) in assay [2] of 0.022 nM.

B3: humanized #125-1-5 Hu4/Lu5 (antibody, V domains shown)
VH: QVQLVQSGAEVKKPGASVKMSCKASGYTFTTYVIHWVRQAPGQRLEWIGYINPNNDGTKYNEKFKGRATLTSDKSASTAYMELSSLRSEDTAVYYCARPHFETHAMDYWGQGTLVTVSS
VL: DIQMTQSPSSLSASVGDRVTITCKASEDIFNRLAWYQQKPGKAPKLLLYGATSLETGVPSRFSGSGSGTDYTLTISSLQPEDFATYYCQQYWNTWTFGQGTKVEIK
notes: Humanized antibody
In the case of B3, in assay [1], the “Internalization rate (flow cytometry, MDA-MB-468 cells)” value was determined as 24.9%. In assay [2], this molecule showed an EC50 of 0.019 nM.

B4: humanized #125-1-5 Hu2/Lu5 (antibody, V domains shown)
VH: QVQLVQSGAEVKKPGASVKVSCKASGYTFTTYVIHWVKQKPGQGLEWIGYINPNNDGTKYNEKFKGRVTITRDTSASTAYMELSSLRSEDTAVYYCARPHFETHAMDYWGQGTLVTVSS
VL: DIQMTQSPSSLSASVGDRVTITCKASEDIFNRLAWYQQKPGKAPKLLLYGATSLETGVPSRFSGSGSGTDYTLTISSLQPEDFATYYCQQYWNTWTFGQGTKVEIK
notes: Humanized antibody
As to B4, the “Internalization rate (flow cytometry, MDA-MB-468 cells)” value in assay [1] came to 47.3%. The molecule also yielded a half-maximal effective concentration (EC50) in assay [2] of 0.007 nM.

B5: humanized #125-1-5 Hu3/Lu6 (antibody, V domains shown)
VH: QVQLVQSGAEVKKPGASVKVSCKASGYTFTTYVIHWVRQAPGQRLEWMGYINPNNDGTKYNEKFKGKATLTSDKSSTTAYMEVRGLTSEDSAVYYCARPHFETHAMDYWGQGTLVTVSS
VL: DIQMTQSPSSLSASVGDRVTITCKASEDIFNRLAWYQQKPGKAPKLLISGATSLETGVPSRFSGSGSGKDYTLTISSLQPEDFATYYCQQYWNTWTFGQGTKVEIK
notes: Humanized antibody
Regarding B5, the “Internalization rate (flow cytometry, MDA-MB-468 cells)” value in assay [1] came out at 7.5%. Moreover, a half-maximal response in assay [2] (EC50) required 0.045 nM.

B6: humanized #125-1-5 Hu2/Lu6 (antibody, V domains shown)
VH: QVQLVQSGAEVKKPGASVKVSCKASGYTFTTYVIHWVKQKPGQGLEWIGYINPNNDGTKYNEKFKGRVTITRDTSASTAYMELSSLRSEDTAVYYCARPHFETHAMDYWGQGTLVTVSS
VL: DIQMTQSPSSLSASVGDRVTITCKASEDIFNRLAWYQQKPGKAPKLLISGATSLETGVPSRFSGSGSGKDYTLTISSLQPEDFATYYCQQYWNTWTFGQGTKVEIK
notes: Humanized antibody
On to B6, for which the “Internalization rate (flow cytometry, MDA-MB-468 cells)” value in assay [1] came out at 14.1%. Also, the 50% effective concentration (EC50) in assay [2] was 0.018 nM.

B7: humanized #125-1-5 Hu1/Lu5 (antibody, V domains shown)
VH: QVQLVQSGAEVKKPGASVKVSCKASGYTFTTYVIHWVRQAPGQRLEWMGYINPNNDGTKYNEKFKGRVTITRDTSASTAYMELSSLRSEDTAVYYCARPHFETHAMDYWGQGTLVTVSS
VL: DIQMTQSPSSLSASVGDRVTITCKASEDIFNRLAWYQQKPGKAPKLLLYGATSLETGVPSRFSGSGSGTDYTLTISSLQPEDFATYYCQQYWNTWTFGQGTKVEIK
On to B7, for which the “Internalization rate (flow cytometry, MDA-MB-468 cells)” value in assay [1] amounted to 49.7%. The EC50 in assay [3] (setting [6]) came to 0.016 nM.

B8: A1X4-MMAE antibody-drug conjugate (antibody, V domains shown)
VH: QVQLQESGPGLVKPSETLSLTCTVSGFSLTSYGVNWIRQPPGKGLEWIGVMWAGGSTNYNSALMSRVTISVDTSKNQFSLKLSSVTAADTAVYYCARDENWDGAWFAYWGQGTLVTVSS
VL: DIVMTQSPDSLAVSLGERATINCKSSQSLLNSGTRKNYLAWYQQKPGQPPKLLISWASSRESGVPDRFSGSGSGTDFTLTISSLQAEDVAVYYCKQSYNLFTFGGGTKVEIKR
modifications: mc-vc-PABA-MMAE on the reduced antibody; chain and positions not stated
In the case of B8, the “in vitro cytotoxicity IC50, Trop-2-high BxPC-3 cells” value in assay [4] is under 1 nM.

B9: Hu(A1)/LuX: humanized #118-2-5, heavy chain Hu(A1) (SEQ ID NO: 29) with light chain LuX (SEQ ID NO: 27) (antibody, V domains shown)
VH: QVQLQESGPGLVKPSETLSLTCTVSGFSLTSYGVNWIRQPPGKGLEWIGVMWAGGSTNYNSALMSRVTISVDTSKNQFSLKLSSVTAADTAVYYCARDENWDGAWFAYWGQGTLVTVSS
VL: DIVMTQSPDSLAVSLGERATINCKSSQSLLNSGTRKNYLAWYQQKPGQPPKLLIYWASSRESGVPDRFSGSGSGTDFTLTISSLQAEDVAVYYCKQSYNLFTFGGGTKVEIK
B9: the Internalization rate in assay [5] turned out to be 56.01%.

B10: A1,2X4-MMAE antibody-drug conjugate (antibody, V domains shown)
VH: QVQLQESGPGLVKPSETLSLTCTVSGFSLTSYGVNWIRQPPGKGLEWIGVMWAGGSTNYNSALMSRLTISKDTSKNQFSLKLSSVTAADTAVYYCARDENWDGAWFAYWGQGTLVTVSS
VL: DIVMTQSPDSLAVSLGERATINCKSSQSLLNSGTRKNYLAWYQQKPGQPPKLLISWASSRESGVPDRFSGSGSGTDFTLTISSLQAEDVAVYYCKQSYNLFTFGGGTKVEIKR
modifications: mc-vc-PABA-MMAE on the reduced antibody; chain and positions not stated
In the case of B10, in assay [4], the “in vitro cytotoxicity IC50, all cells that express different levels of Trop-2” value is under 1 nM.

B11: HuA/Lu(X3): humanized #118-2-5, heavy chain HuA (SEQ ID NO: 23) with light chain Lu(X3) (SEQ ID NO: 36) (antibody, V domains shown)
VH: QVQLQESGPGLVKPSETLSLTCTVSGFSLTSYGVNWIRQPPGKGLEWIGVMWAGGSTNYNSALMSRVTISVDTSKNQFSLKLSSVTAADTAVYYCARDENWDGAWFAYWGQGTLVTVSS
VL: DIVMTQSHKFISTSVGDRVSITCKASQDVDTAVAWYQQKPGQSPKLLIHWASTRHTGVPDRFTGGGSGTDFTLTLSNVQSEDLADYFCQQYSTFPWTFGGGTRLEIK
B11: the Internalization rate in assay [5] was found to be 13.22%. In assay [3] (Table 8, second round of humanization of #118-2-5), this molecule came in with an EC50 of 0.45 nM.

B12: humanized IgG #125-1-5 Hu3/Lu5 (antibody, V domains shown)
VH: QVQLVQSGAEVKKPGASVKVSCKASGYTFTTYVIHWVRQAPGQRLEWMGYINPNNDGTKYNEKFKGKATLTSDKSSTTAYMEVRGLTSEDSAVYYCARPHFETHAMDYWGQGTLVTVSS
VL: DIQMTQSPSSLSASVGDRVTITCKASEDIFNRLAWYQQKPGKAPKLLLYGATSLETGVPSRFSGSGSGTDYTLTISSLQPEDFATYYCQQYWNTWTFGQGTKVEIKR
notes: also called IgG Hu3/Lu5
Turning to B12, in assay [1], the “Internalization rate (flow cytometry, MDA-MB-468 cells)” value was determined as 14%. The EC50 in assay [2] is 0.012 nM.

B13: #125-1-5 mouse H14-4/L3-4: parental mouse #125-1-5 heavy/light chains H14-4/L3-4, comparator of the humanized IgGs (antibody, V domains shown)
VH: QIQLVQSGPELVKPGASVKMSCKASGYTFTTYVIHWVKQKPGQGLEWIGYINPNNDGTKYNEKFKGKATLISDKSSTTAYMEVRGLTSEDSAVYYCARPHFETHAMDYWGQGTSVTVSS
VL: DIQMTQSPSSFSVSLGDSVTITCKASEDIFNRLAWYQQKPGNAPRLLISGATSLETGVPSRFSGGGSGKEYTLSITSLQNEDVATYYCQQYWNTWTFGGGTKLEIK
B13 came in with an EC50 in assay [3] (setting [6]) of 0.004 nM.
